Source: US20210380703A1 (RIGEL PHARMACEUTICALS, published 2021)

The binders below were run against Human ACVR2A (on cells) (human, UniProt P27037 20-513) (assay: cell-based or functional assay).
Chain of Human ACVR2A (on cells) (P27037 20-513): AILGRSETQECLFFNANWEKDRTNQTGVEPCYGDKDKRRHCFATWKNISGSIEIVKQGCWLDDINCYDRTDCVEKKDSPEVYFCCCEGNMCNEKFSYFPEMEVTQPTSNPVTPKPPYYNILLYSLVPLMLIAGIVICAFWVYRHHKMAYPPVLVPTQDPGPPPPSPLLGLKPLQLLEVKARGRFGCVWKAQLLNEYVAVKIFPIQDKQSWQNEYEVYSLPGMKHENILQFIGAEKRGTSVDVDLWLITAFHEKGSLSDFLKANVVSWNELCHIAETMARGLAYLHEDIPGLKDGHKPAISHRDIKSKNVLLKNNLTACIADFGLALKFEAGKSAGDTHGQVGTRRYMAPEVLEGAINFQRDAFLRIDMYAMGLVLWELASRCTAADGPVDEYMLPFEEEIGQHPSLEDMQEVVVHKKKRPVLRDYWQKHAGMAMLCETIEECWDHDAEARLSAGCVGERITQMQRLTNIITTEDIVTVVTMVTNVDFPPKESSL

| Binder | Phospho-SMAD3 Human Skeletal Muscle GDF8 (AlphaLisa, primary human myotubes) |
| --- | --- |
| 375_A06 (antibody, V domains shown) VH: EVQLLESGGGLVQPGGSLRLSCAASGFTFSSYSMNWVRQAPGKGLEWVAGINYNSGYKGYADSVKGRFTISRDNSKNTLYLQMNSLRAEDTAVYYCARSATWHDTHLDYWGQGTLVTVSS VL: DIQMTQSPSSLSASVGDRVTITCRASQSILTYVNWYQQKPGKAPKLLIYAASSLQSGVPSRFSGSGSGTDFTLTISSLQPEDFATYYCQQSYSTPLTFGGGTKVEIK | 0.0318 |
| 375_C12 (antibody, V domains shown) VH: EVQLLESGGGLVQPGGSLRLSCAASGFTFSSYSMNWVRQAPGKGLEWVANINYNGGYTGYADSVKGRFTISRDNSKNTLYLQMNSLRAEDTAVYYCARSATWHDTHLDYWGQGTLVTVSS VL: DIQMTQSPSSLSASVGDRVTITCRASQSILTYLNWYQQKPGKAPKLLIYAATSRASGVPSRFSGSGSGTDFTLTISSLQPEDFATYYCQQSYDLPLTFGGGTKVEIK | 0.0063 |
| 375_G07 (antibody, V domains shown) VH: EVQLLESGGGLVQPGGSLRLSCAASGFTFDSYSMNWVRQAPGKGLEWVAGINYNSGYTSYADSVKGRFTISRDNSKNTLYLQMNSLRAEDTAVYYCARSATWHDTHLDYWGQGTLVTVSS VL: DIQMTQSPSSLSASVGDRVTITCRASQSILSYLNWYQQKPGKAPKLVIYAATSLASGVPSRFSGSGSGTDFTLTISSLQPEDFATYYCQQSYDLPLTFGGGTKVEIK | 0.0112 |

The remaining lines, values ahead:

| Phospho-SMAD3 Human Skeletal Muscle GDF8 (AlphaLisa, primary human myotubes) | Binder |
| --- | --- |
| 0.0043 | 376_A06 (antibody, V domains shown) VH: EVQLLESGGGLVQPGGSLRLSCAASGFTFDSYSMNWVRQAPGKGLEWVSGINYNSGYTSYADSVKGRFTISRDNSKNTLYLQMNSLRAEDTAVYYCARSATWHDTALDYWGQGTLVTVSS VL: DIQMTQSPSSLSASVGDRVTITCRASQSILSYLNWYQQKPGKAPKLVIYYVSNRASGVPSRFSGSGSGTDFTLTISSLQPEDFATYYCQQSYDNPLTFGGGTKVEIK |
| 0.0086 | 376_B01 (antibody, V domains shown) VH: EVQLLESGGGLVQPGGSLRLSCAASGFTFDSYSMNWVRQAPGKGLEWVAGINYNGGYTSYADSVKGRFTISRDNSKNTLYLQMNSLRAEDTAVYYCARSATWHDTHLDYWGQGTLVTVSS VL: DIQMTQSPSSLSASVGDRVTITCRASQSILTYVNWYQQKPGKAPKLVIYAATSRASGVPSRFSGSGSGTDFTLTISSLQPEDFATYYCQQSYNLPLTFGGGTKVEIK |
